Laboratory results taken from US20230174655A1 (published 2023).

Assays:
[1] = molecular target: T1, FcγRIIb extracellular domain with C-terminal His tag (human, UniProt P31994 43-217); test: SPR (Biacore), antibody captured, FcgR analyte
T1 construct: extracellular domain; also called FcRIIb; FcgRIIb; not shown: His tag at the C terminus
T1 sequence (looked up): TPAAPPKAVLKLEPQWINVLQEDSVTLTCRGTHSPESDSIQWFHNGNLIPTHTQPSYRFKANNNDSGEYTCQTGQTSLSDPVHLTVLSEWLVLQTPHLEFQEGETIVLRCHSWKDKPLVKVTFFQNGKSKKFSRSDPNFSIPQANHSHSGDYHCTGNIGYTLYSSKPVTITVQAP
Text: (§1) In the table, SEQ ID NO refers to the SEQ ID NO of the H chain of the evaluated variant, and alteration refers to the alteration introduced into IL6R-B3 (SEQ ID NO: 40). […] Furthermore, KD(IIaR)/KD(IIb) and KD(IIaH)/KD(IIb) in the table respectively represent the value obtained by dividing the KD value of each variant for FcγRIIaR by the KD value of each variant for FcγRIIb, and the value obtained by dividing the KD value of each variant for FcγRIIaH by the KD value of each variant for FcγRIIb. KD(IIb) of the parent polypeptide/KD(IIb) of the altered polypeptide refers to the value obtained by dividing the KD value of the parent polypeptide for FcγRIIb by the KD value of each variant for FcγRIIb.
(§2) Kinetic analyses for calculating the KD values of each altered antibody for FcγR were performed according to the following method. First, antibodies of interest were captured onto the above-mentioned sensor chips, and an Fcγ receptor diluted with the running buffer was allowed to interact. The Biacore™ Evaluation Software was used to globally fit the measured results to the obtained sensorgram using the 1:1 Langmuir binding model, and the association rate constant ka (L/mol/s) and the dissociation rate constant kd (1/s) were calculated; and from those values the dissociation constants KD (mol/L) were calculated.

[2] = molecular target: T2, FcγRIIb extracellular domain with C-terminal His tag (human, UniProt P31994 43-217); test: SPR (Biacore), Reference Example 2
T2 construct: extracellular domain; also called FcgRIIb; FcγRIIb extracellular region
T2 sequence (looked up): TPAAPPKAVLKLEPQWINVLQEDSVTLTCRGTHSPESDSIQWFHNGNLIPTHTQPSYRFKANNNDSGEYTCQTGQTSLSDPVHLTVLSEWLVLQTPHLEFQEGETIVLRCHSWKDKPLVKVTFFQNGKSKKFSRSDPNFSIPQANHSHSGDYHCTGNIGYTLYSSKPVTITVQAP
Text: (§3) Furthermore, KD(IIaR)/KD(IIb) and KD(IIaH)/KD(IIb) in the table respectively show the value obtained by dividing the KD value of each variant for FcγRIIaR by the KD value of each variant for FcγRIIb, and the value obtained by dividing the KD value of each variant for FcγRIIaH by the KD value of each variant for FcγRIIb. KD(IIb) of the parent polypeptide/KD(IIb) of the altered polypeptide refers to a value obtained by dividing the KD value of the parent polypeptide for FcγRIIb by the KD value of each variant for FcγRIIb.
as §2

[3] = molecular target: T3, FcγRIIa type R extracellular domain with C-terminal His tag (human, UniProt P12318 34-217); test: SPR (Biacore), Reference Example 2
T3 construct: extracellular domain; also called FcγRIIa R; FcγRIIaR
T3 sequence (looked up): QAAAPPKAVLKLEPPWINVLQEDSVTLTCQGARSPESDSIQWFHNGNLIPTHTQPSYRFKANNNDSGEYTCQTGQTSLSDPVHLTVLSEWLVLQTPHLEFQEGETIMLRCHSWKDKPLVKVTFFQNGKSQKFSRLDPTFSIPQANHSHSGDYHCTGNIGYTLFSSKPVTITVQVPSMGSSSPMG
Text: as §3, §2

[4] = molecular target: T4, FcγRIIa type R extracellular domain with C-terminal His tag (human, UniProt P12318 34-217); test: SPR (Biacore), antibody captured on chip, FcγR extracellular domain as analyte
T4 construct: extracellular domain; also called FcgRIIaR; FcγRIIa R; not shown: His tag at the C terminus
T4 sequence (looked up): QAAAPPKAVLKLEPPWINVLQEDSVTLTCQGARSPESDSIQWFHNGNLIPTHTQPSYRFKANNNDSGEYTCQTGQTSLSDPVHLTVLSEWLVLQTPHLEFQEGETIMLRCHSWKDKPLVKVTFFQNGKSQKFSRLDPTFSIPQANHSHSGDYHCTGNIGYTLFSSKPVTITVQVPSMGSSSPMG
Text: as §1, §2

[5] = molecular target: T5, FcγRIIa type R extracellular domain with C-terminal His tag (human, UniProt P12318 34-217); test: SPR (Biacore), antibody captured, FcgR analyte
T5 chain: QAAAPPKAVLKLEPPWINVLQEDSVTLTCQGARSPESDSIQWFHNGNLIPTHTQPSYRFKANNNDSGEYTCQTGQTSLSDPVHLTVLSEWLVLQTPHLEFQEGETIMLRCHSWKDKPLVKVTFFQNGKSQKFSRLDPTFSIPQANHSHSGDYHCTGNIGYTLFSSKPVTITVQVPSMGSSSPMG
Text: as §1, §2

B1: IL6R-2B251/IL6R-L (antibody, human IgG1, kappa)
heavy: QVQLQESGPGLVKPSETLSLTCAVSGHSISHDHAWSWVRQPPGEGLEWIGFISYSGITNYNPSLQGRVTISRDNSKNTLYLQMNSLRAEDTAVYYCARSLARTTAMDYWGEGTLVTVSSASTKGPSVFPLAPSSKSTSGGTAALGCLVKDYFPEPVTVSWNSGALTSGVHTFPAVLQSSGLYSLSSVVTVPSSSLGTQTYICNVNHKPSNTKVDKKVEPKSCDKTHTCPPCPAPDLLGGDSVFLFPPKPKDTLMISRTPEVTCVVVDVSHEDPEVKFNWYVDGVEVHNAKTKPREEQDNSTYRVVSVLTVLHQDWLNGKEYKCKVSNKALPAPIEKTISKAKGQPREPQVYTLPPSRDELTKNQVSLTCLVKGFYPSDIAVEWESNGQPENNYKTTPPVLDSDGSFFLYSKLTVDKSRWQQGNVFSCSVMHEALHNHYTQESLSLSP
light: not shown
notes: alteration printed: B233D/P238D/Y296D; also called ILGR-2B261/IL6R-L; copies: 2 + 2
[1]
  Kd: 10 µM

B2: IL6R-PD042/IL6R-L (antibody, human IgG1, kappa)
heavy: QVQLQESGPGLVKPSETLSLTCAVSGHSISHDHAWSWVRQPPGEGLEWIGFISYSGITNYNPSLQGRVTISRDNSKNTLYLQMNSLRAEDTAVYYCARSLARTTAMDYWGEGTLVTVSSASTKGPSVFPLAPSSKSTSGGTAALGCLVKDYFPEPVTVSWNSGALTSGVHTFPAVLQSSGLYSLSSVVTVPSSSLGTQTYICNVNHKPSNTKVDKKVEPKSCDKTHTCPPCPAPEWLGGDSVFLFPPKPKDTLYISRTPEVTCVVVDVSHEDPEVKFNWYVDGVEVHNAKTKPREEQYNSTYRVVSVLTVLHQDWLNGKEYKCKVSNKALPAPIEKTISKAKGQPREPQVYTLPPSRDELTKNQVSLTCLVKGFYPSDIAVEWESNGQPENNYKTTPPVLDSDGSFFLYSKLTVDKSRWQQGNVFSCSVMHEALHYHYTQKSLSLSP
light: not shown
notes: H chain: IL6R-F11 with P238D/L234W (EU numbering); also called P238D/L234W; copies: 2 + 2
[2]
  Kd: 20 µM
[3]
  Kd: 16 µM

B3: IL6R-BP142/IL6R-L (antibody, human IgG1, kappa)
heavy: QVQLQESGPGLVKPSETLSLTCAVSGHSISHDHAWSWVRQPPGEGLEWIGFISYSGITNYNPSLQGRVTISRDNSKNTLYLQMNSLRAEDTAVYYCARSLARTTAMDYWGEGTLVTVSSASTKGPSVFPLAPSSKSTSGGTAALGCLVKDYFPEPVTVSWNSGALTSGVHTFPAVLQSSGLYSLSSVVTVPSSSLGTQTYICNVNHKPSNTKVDKKVEPKSCDKTHTCPPCPAPELLGGDSVFLFPPKPKDTLMISRTPEVTCVVVDVSHEDPEVKFNWYVDGVEVHNAKTKPREEQYNSTYRVVSVLTVLHQDWLNGKEYKCKVSNNALPAPIEKTISKAKGQPREPQVYTLPPSRDELTKNQVSLTCLVKGFYPSDIAVEWESNGQPENNYKTTPPVLDSDGSFFLYSKLTVDKSRWQQGNVFSCSVMHEALHNHYTQESLSLSP
light: not shown
notes: IgG1; P238D/K326N (EU) introduced into IL6R-B3
[4]
  Kd: 16 µM

B4: IL6R-BF201/IL6R-L (antibody, human IgG1, kappa)
heavy: QVQLQESGPGLVKPSETLSLTCAVSGHSISHDHAWSWVRQPPGEGLEWIGFISYSGITNYNPSLQGRVTISRDNSKNTLYLQMNSLRAEDTAVYYCARSLARTTAMDYWGEGTLVTVSSASTKGPSVFPLAPSSKSTSGGTAALGCLVKDYFPEPVTVSWNSGALTSGVHTFPAVLQSSGLYSLSSVVTVPSSSLGTQTYICNVNHKPSNTKVDKKVEPKSCDKTHTCPPCPAPDLLGDDSVFLFPPKPKDTLMISRTPEVTCVVVDVSHEDGEVKFNWYVDGVEVHNAKTKPREEQYNSTYRVVSVLTVLHQDWLNGKEYKCKVSNKALPRPIEKTISKAKGQPREPQVYTLPPSRDELTKNQVSLTCLVKGFYPSDIAVEWESNGQPENNYKTTPPVLDSDGSFFLYSKLTVDKSRWQQGNVFSCSVMHEALHNHYTQESLSLSP
light: not shown
notes: alteration printed: E233D/G237D/P238D/P271G/A330R; copies: 2 + 2
[1]
  Kd: 40 µM
[5]
  Kd: 0.84 µM
